Data: the supplement of paper PMC7877785
± gives the uncertainty stated by the source.

Assay: self-splicing fitness, log relative to wild type (ln ratio); higher = more splicing; Tetrahymena group I intron in knt gene, E. coli kanamycin selection, DiMSum; sequences stand for … in CUCUCU…GGAGGGAAAAGUUAUCAGGCAUGCACCUGGUAGCUAGUCUUUAAACCAAUAGAUUGCAUCGGUUUAAAAGGCAAGACCGUCAAAUUGCGGGAAAGGGGUCAACAGCCGUUCAGUACCAAGUCUCAGGGGAAACUUUGAGAUGGCCUUGCAAAGGGUAUGGUAAUAAGCUGACGGACAUGGUCCUAACCACGCAGCCAAGUCCUAAGUCAACAGAUCUUCUGUUGAUAUGGAUGCAGUUCACAGACUAAAUGUCGGUCGGGGAAGAUGUAUUCUUCUCAUAAGAUAUAGUCGGACCUCUCCUUAAUGGGAGCUAGCGGAUGAAGUGAUGCAACACUGGAGCCGCUGGGAACUAAUUUGUAUGCGAAAGUAUAUUGAUUAGUUUUGGAGUACUCGUGGUCG
In short: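 Pooled colonies went to amplicon sequencing on an Illumina HiSeq 2500 after six replicate transformations. The plates were LB agar with 100 μg/mL carbenicillin, 50 μM IPTG and 0.2% rhamnose, with or without 25 μg/mL kanamycin, incubated overnight at 37°C or 30°C. The E. coli BL21(DE3) library had all eight P1ex-region intron nucleotides randomised, the intron placed in the knt kanamycin-resistance gene on pET-22b(+). DiMSum fitness is the error-weighted combination of replicate fold changes, kanamycin against none, normalised to wild type.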

Sequence	self-splicing fitness (ln) (30 °C)	self-splicing fitness (ln) (37 °C)
GCCCAGCAAUAUUACGUAUC	-0.98 ± 0.08	-1.18 ± 0.081
GCCCAGCAAUAUUACGUUCU	-1.95 ± 0.079	-1.18 ± 0.091
GCCCAGCAAUAUUACGUUGA	-1.72 ± 0.11	-1.25 ± 0.12
GCCCAGCAAUAUUACGUUUU	-1.53 ± 0.064	-0.591 ± 0.09
GCCGAGCAAUAUUACGAAGA	-2.76 ± 0.16	-2.03 ± 0.12
GCCGAGCAAUAUUACGAGAA	-2.99 ± 0.19	-0.755 ± 0.12
GCCGAGCAAUAUUACGAGGU	-4 ± 0.3	-2.23 ± 0.25
GCCGAGCAAUAUUACGAUGU	-0.691 ± 0.057	-0.267 ± 0.069
GCCGAGCAAUAUUACGCAAC	-3.15 ± 0.29	-2.07 ± 0.26
GCCGAGCAAUAUUACGCAUG	-3.99 ± 0.3	-2.4 ± 0.22
GCCGAGCAAUAUUACGCCGC	-3.95 ± 0.43	
GCCGAGCAAUAUUACGCUUG	-3.71 ± 0.23	-2.78 ± 0.24
GCCGAGCAAUAUUACGGACU	-1.86 ± 0.2	-0.863 ± 0.15
GCCGAGCAAUAUUACGGCAG	-3.94 ± 0.29	-2.61 ± 0.33
GCCGAGCAAUAUUACGGGGG	-3.61 ± 0.19	-3.02 ± 0.31
GCCGAGCAAUAUUACGUAAU	-1.28 ± 0.092	-0.203 ± 0.099
GCCGAGCAAUAUUACGUAUA	-3.29 ± 0.15	-1.87 ± 0.12
GCCGAGCAAUAUUACGUCUC	-2.92 ± 0.22	-1.44 ± 0.21
GCCGAGCAAUAUUACGUGGC	-3.26 ± 0.14	-2.25 ± 0.21
GCCGAGCAAUAUUACGUGUA	-1.32 ± 0.071	-0.983 ± 0.078
GCCGAGCAAUAUUACGUUCG	-2.72 ± 0.26	-2 ± 0.34
GCCGAGCAAUAUUACGUUGG	-3.55 ± 0.24	-2.18 ± 0.27
GCCUAGCAAUAUUACGAAUA	-2.12 ± 0.43	
GCCUAGCAAUAUUACGAAUU	-2.09 ± 0.12	-0.976 ± 0.11
GCCUAGCAAUAUUACGACGC	-0.302 ± 0.091	0.255 ± 0.11
GCCUAGCAAUAUUACGACUU	-1.37 ± 0.077	-0.298 ± 0.079

Sequence	self-splicing fitness (ln) (30 °C)	self-splicing fitness (ln) (37 °C)
GCCUAGCAAUAUUACGAUAA	-2.08 ± 0.12	-1.75 ± 0.14
GCCUAGCAAUAUUACGAUUC	-0.921 ± 0.076	-0.684 ± 0.096
GCCUAGCAAUAUUACGCAAU	-0.932 ± 0.14	-0.245 ± 0.17
GCCUAGCAAUAUUACGCUCU	-0.984 ± 0.06	0.106 ± 0.083
GCCUAGCAAUAUUACGCUGA	-1.69 ± 0.074	-0.266 ± 0.079
GCCUAGCAAUAUUACGGCAA	-2.64 ± 0.15	-1.75 ± 0.14
GCCUAGCAAUAUUACGGCCU	-2.48 ± 0.18	-1.33 ± 0.24
GCCUAGCAAUAUUACGGCUG	-1.88 ± 0.15	-3.29 ± 0.42
GCCUAGCAAUAUUACGGGUU	-2.93 ± 0.12	-2.02 ± 0.13
GCCUAGCAAUAUUACGGUGU	-0.374 ± 0.054	0.0553 ± 0.064
GCCUAGCAAUAUUACGGUUU	-0.729 ± 0.05	-0.56 ± 0.062
GCCUAGCAAUAUUACGUCGC	-1.46 ± 0.17	-1.01 ± 0.16
GCCUAGCAAUAUUACGUUCU	-1.96 ± 0.14	-0.354 ± 0.12
GCGAAGCAAUAUUACGAACU	-0.877 ± 0.16	-0.787 ± 0.17
GCGAAGCAAUAUUACGAAGU	-2.99 ± 0.35	-2.89 ± 0.26
GCGAAGCAAUAUUACGACGC	-1.98 ± 0.47	
GCGAAGCAAUAUUACGACGG	-1.27 ± 0.21	-0.313 ± 0.33
GCGAAGCAAUAUUACGACUU	-1.4 ± 0.1	-0.741 ± 0.12
GCGAAGCAAUAUUACGAGCA	-1.52 ± 0.2	-1.63 ± 0.25
GCGAAGCAAUAUUACGAGGG	-3.77 ± 0.23	-3.27 ± 0.35
GCGAAGCAAUAUUACGAUCA	-1.82 ± 0.34	-1.01 ± 0.3
GCGAAGCAAUAUUACGAUCG	-2.49 ± 0.31	-0.964 ± 0.28
GCGAAGCAAUAUUACGCACA	-1.08 ± 0.13	-0.906 ± 0.14
GCGAAGCAAUAUUACGCACG	-2.58 ± 0.21	-3.6 ± 0.35
GCGAAGCAAUAUUACGCAGG	-3.06 ± 0.27	-2.39 ± 0.23
GCGAAGCAAUAUUACGCCUG	-2.26 ± 0.19	-2.16 ± 0.24

Sequence	self-splicing fitness (ln) (30 °C)	self-splicing fitness (ln) (37 °C)
GCGAAGCAAUAUUACGCGGG	-2.26 ± 0.16	-2.72 ± 0.36
GCGAAGCAAUAUUACGCGGU	-2.84 ± 0.29	-1.65 ± 0.32
GCGAAGCAAUAUUACGCUAA	-2.54 ± 0.28	-2.21 ± 0.2
GCGAAGCAAUAUUACGCUGG	-1.61 ± 0.13	-2.73 ± 0.22
GCGAAGCAAUAUUACGGAAC	-2.72 ± 0.21	-2.28 ± 0.47
GCGAAGCAAUAUUACGGCAG	-1.93 ± 0.21	-2.92 ± 0.38
GCGAAGCAAUAUUACGGCUG	-1.55 ± 0.1	-0.574 ± 0.14
GCGAAGCAAUAUUACGGGCA	-1.96 ± 0.15	-0.529 ± 0.11
GCGAAGCAAUAUUACGGGUU	-2.88 ± 0.1	-1.65 ± 0.099
GCGAAGCAAUAUUACGGUGA	-2.09 ± 0.11	-1.07 ± 0.12
GCGAAGCAAUAUUACGUAUG	-4.39 ± 0.26	-2.81 ± 0.16
GCGAAGCAAUAUUACGUCAU	-2.72 ± 0.15	-1.65 ± 0.14
GCGAAGCAAUAUUACGUCCU	-0.0766 ± 0.14	0.569 ± 0.17
GCGAAGCAAUAUUACGUUAU	-2.2 ± 0.1	-1.86 ± 0.11
GCGCAGCAAUAUUACGAAAA	-1.92 ± 0.21	-1.7 ± 0.21
GCGCAGCAAUAUUACGAAUG	-1.52 ± 0.13	-0.961 ± 0.14
GCGCAGCAAUAUUACGAGGU	-2.49 ± 0.2	-1.24 ± 0.25
GCGCAGCAAUAUUACGAUGC	-2.63 ± 0.17	-0.824 ± 0.17
GCGCAGCAAUAUUACGAUUG	-2.57 ± 0.073	-1.28 ± 0.1
GCGCAGCAAUAUUACGCAAC	-1.79 ± 0.14	-0.576 ± 0.18
GCGCAGCAAUAUUACGCCGC	-2.28 ± 0.35	-1.44 ± 0.49
GCGCAGCAAUAUUACGCCGG	-2.75 ± 0.25	-1.57 ± 0.31
GCGCAGCAAUAUUACGCGAU		-2.14 ± 0.3
GCGCAGCAAUAUUACGCGGU	-3.82 ± 0.28	-2.25 ± 0.22
GCGCAGCAAUAUUACGGACC	-1.03 ± 0.24	0.344 ± 0.38
